In assay [1] the target is LFA-1 (CD11a/CD18) on cells (human) (UniProt P20701). Nature of the assay: SKW3 cell adhesion to plate-bound shICAM-R, peptide 1-2 mg/ml.
Assay [2] addresses ICAM-1/IgG chimera (UniProt P05362). The experiment in a line: adhesion of transfected CHO cells to immobilized chimera, with PMA.
In assay [3] the target is LFA-1 (CD11a/CD18) on cells (human) (UniProt P20701). The experiment in a line: neutrophil adhesion to immobilized ICAM-R/Ig, mAb 15 µg/ml.
The target is the same in assay [4]. The experiment in a line: JY cell adhesion to shICAM-R, mAb 10 µg/ml.

From patent publication US20040248211A1, “ICAM-related protein” (priority 1992, published 2004) come the findings set out here.

Chain of LFA-1 (CD11a/CD18) on cells (human) (P20701 26-1170, chain 1 of 2): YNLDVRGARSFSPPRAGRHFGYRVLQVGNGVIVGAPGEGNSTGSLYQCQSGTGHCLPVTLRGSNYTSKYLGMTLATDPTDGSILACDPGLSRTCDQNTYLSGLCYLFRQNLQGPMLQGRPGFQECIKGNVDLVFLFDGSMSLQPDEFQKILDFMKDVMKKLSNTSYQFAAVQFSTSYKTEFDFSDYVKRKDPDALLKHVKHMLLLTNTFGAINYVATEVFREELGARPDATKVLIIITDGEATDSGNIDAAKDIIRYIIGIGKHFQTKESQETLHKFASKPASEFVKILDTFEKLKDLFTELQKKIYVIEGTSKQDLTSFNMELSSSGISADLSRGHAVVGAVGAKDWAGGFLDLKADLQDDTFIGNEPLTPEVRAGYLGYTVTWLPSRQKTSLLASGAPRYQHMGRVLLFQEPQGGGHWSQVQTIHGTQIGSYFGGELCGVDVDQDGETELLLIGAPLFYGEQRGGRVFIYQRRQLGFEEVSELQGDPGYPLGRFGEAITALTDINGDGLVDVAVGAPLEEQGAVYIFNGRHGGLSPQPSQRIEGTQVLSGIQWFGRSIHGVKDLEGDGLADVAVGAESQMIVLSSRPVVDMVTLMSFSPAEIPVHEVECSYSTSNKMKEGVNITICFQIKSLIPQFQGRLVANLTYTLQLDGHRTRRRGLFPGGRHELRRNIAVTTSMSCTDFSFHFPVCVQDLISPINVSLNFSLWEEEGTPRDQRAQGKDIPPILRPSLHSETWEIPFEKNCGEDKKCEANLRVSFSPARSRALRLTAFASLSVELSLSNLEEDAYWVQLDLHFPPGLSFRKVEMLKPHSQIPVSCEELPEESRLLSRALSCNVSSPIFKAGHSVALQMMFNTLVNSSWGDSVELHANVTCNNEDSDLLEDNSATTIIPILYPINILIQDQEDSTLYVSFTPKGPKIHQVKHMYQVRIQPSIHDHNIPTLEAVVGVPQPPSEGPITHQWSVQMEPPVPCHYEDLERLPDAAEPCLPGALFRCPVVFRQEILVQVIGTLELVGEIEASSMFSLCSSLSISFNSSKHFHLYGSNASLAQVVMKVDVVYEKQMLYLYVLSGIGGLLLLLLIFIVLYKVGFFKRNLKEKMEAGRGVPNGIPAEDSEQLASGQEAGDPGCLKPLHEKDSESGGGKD
Chain of LFA-1 (CD11a/CD18) on cells (human) (P05107 23-769, chain 2 of 2, further chain): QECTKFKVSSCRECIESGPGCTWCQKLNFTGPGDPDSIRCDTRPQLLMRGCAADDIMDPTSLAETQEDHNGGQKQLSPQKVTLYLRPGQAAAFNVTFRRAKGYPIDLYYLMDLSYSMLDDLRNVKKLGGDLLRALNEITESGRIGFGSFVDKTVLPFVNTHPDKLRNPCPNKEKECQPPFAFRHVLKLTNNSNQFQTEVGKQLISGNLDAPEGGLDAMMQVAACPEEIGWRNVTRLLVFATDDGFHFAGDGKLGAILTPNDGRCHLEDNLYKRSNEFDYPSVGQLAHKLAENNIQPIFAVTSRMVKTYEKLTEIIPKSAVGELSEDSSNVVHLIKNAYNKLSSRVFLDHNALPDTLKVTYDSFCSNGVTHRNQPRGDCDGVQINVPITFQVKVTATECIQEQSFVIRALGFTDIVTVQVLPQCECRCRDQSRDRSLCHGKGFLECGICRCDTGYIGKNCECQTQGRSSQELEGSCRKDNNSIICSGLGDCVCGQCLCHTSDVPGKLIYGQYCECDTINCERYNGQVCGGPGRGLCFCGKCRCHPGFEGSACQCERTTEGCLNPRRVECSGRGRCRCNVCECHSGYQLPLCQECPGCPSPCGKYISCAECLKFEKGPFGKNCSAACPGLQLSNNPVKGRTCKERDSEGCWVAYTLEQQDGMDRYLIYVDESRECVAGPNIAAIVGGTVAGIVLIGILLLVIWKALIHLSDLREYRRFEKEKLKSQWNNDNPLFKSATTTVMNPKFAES
Chain of ICAM-1/IgG chimera (P05362 28-480 limits assumed, change not shown): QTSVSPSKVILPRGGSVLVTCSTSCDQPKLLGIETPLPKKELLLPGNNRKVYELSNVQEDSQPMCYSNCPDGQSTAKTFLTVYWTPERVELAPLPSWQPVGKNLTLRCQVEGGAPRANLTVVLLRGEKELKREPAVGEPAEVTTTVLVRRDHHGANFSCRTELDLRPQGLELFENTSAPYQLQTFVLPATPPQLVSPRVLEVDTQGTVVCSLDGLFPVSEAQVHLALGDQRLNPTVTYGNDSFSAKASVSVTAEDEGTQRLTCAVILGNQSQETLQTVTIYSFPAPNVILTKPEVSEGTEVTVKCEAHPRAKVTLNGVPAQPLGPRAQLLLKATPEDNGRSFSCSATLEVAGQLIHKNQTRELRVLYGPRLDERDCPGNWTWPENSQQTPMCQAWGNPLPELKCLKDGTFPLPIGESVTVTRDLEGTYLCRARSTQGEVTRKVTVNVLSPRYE
Chain of LFA-1 (CD11a/CD18) on cells (P20701 26-1170): as the sequence (P20701 26-1170, chain 1 of 2) above
Chain of LFA-1 (CD11a/CD18) on cells (P05107 23-769): as the sequence (P05107 23-769, chain 2 of 2, further chain) above

For “ICAM-R domain 1 peptide NGSQI, residues 72-76”, the % Inhibition of cell binding to shICAM-R in assay [1] was 26%.

As for “LFA-1 (CD11a/CD18) on cells (from UniProt P20701 26-1170; P05107 23-769) (receptor; other documents disagree on this pair)”, the fold increase in binding in assay [2] lay in the range of 2 to 3 fold.

For anti-CD11a monoclonal antibody TS1/22, the % inhibition of neutrophil binding to ICAM-R in assay [3] stood at 50%.

Substance anti-CD18 monoclonal antibody 60.3 yielded an Inhibition (%) of CD18-dependent JY cell binding in assay [4] of 100%.
